No end group written: not given here.
Tests used:
Assay in all cases: SPR
[1] = target: S1-RBD (ACROBiosystems SPD-C82E9) (SARS-CoV-2 (Wuhan-Hu-1 strain), UniProt P0DTC2 319-541)
[2] = target: S1 (Novus Biologicals NBP2-90985) (SARS-CoV-2, UniProt P0DTC2 14-685)
[3] = target: S1-NTD (ACROBiosystems S1D-C52H6) (SARS-CoV-2 (Wuhan-Hu-1 strain))
[4] = target: S2 (ACROBiosystems S2N-C52E8) (SARS-CoV-2 (Wuhan-Hu-1 strain), UniProt P0DTC2 14-1273)

Binder | Kd [1] | Kd [2] | Kd [3] | Kd [4]
ACMNPFFYDCETVCA (not fully specified (bridges); also: bicyclic peptide, scaffold not named) [E9 Bicycle (exemplar of epitope group 9)] | 4.1 µM | 3.8 µM | – | –
ACPYVAGRGTCLLCA (not fully specified (bridges); also: Bicycle) [E2 Bicycle (canonical exemplar of epitope group 2)] | 0.65 µM | 0.83 µM | – | –
ACEDNDWVYCSTCA (not fully specified (bridges); also: Bicycle) [E3 Bicycle (exemplar of epitope group 3)] | 2.3 µM | 2.5 µM | – | –
ACIPLDWTCMIACA (not fully specified (bridges); also: bicyclic peptide, scaffold not named) [E4 Bicycle (exemplar of epitope group 4)] | – | 2.9 µM | 0.44 µM | –
ACSSKFCDAWWNFNRCA (not fully specified (bridges); also: Bicycle) [E12 Bicycle (exemplar of epitope group 12)] | – | – | – | 0.81 µM
ACINPYCEHHIYLEHCA (not fully specified (bridges); also: bicyclic peptide, scaffold not given here) [E7 Bicycle (exemplar of epitope group 7)] | – | – | 4 µM | –
ACDHYHCPWLALGGSCA (not fully specified (bridges); also: bicyclic peptide, scaffold not given here) [E6 Bicycle (exemplar of epitope group 6)] | – | – | 3.9 µM | –
ACFPEPWLGLCTPCA (not fully specified (bridges); also: Bicycle) [E11 Bicycle (exemplar of epitope group 11)] | – | – | – | 0.53 µM
ACANPDNPVCRFYCA (not fully specified (bridges); also: bicyclic peptide, scaffold not named) [E5 Bicycle (canonical exemplar of epitope group 5)] | – | 0.024 µM | – | –
ACEYVGPMCYRLYCA (not fully specified (bridges); also: Bicycle) [E1 Bicycle (exemplar of epitope group 1)] | 3.6 µM | 5.1 µM | – | –

From PMC10275983 (2023)
